In patent US20110070184A1, “METHODS AND COMPOSITIONS FOR TREATING ATHEROSCLEROSIS AND RELATED CONDIDTIONS” (CAROLUS THERPEUTICS, INC., priority 2008, published 2011):

Key:
CXCR4 = CXCR4 (Homo sapiens, UniProt P61073); settings: data not shown
primary human monocytes [1] = test: Transwell chemotaxis of primary monocytes toward MIF; type: cell-based
Protocol: (§1) Chemotaxis assays. […] Pore sizes and intervals were 5 μm and 3 h (monocytes), 3 μm and 1.5 h (T cells), and […] and 1 h (neutrophils).

[2] = system: primary CD3+ T lymphocytes; test: Transwell chemotaxis of primary CD3+ T cells toward MIF; type: cell-based, human; settings: primary CD3+ T lymphocytes devoid of CXCR1 and CXCR2
Protocol: as §1

CXCR2 [3] = molecular target: T1, CXCR2 (Homo sapiens, UniProt P25025); test: CXCR2 internalization assay in HEK293-CXCR2 transfectants (FACS); type: cell-based; settings: stable HEK293 transfectants
T1 construct: expressed in transfected cells
T1 sequence (P25025 1-360): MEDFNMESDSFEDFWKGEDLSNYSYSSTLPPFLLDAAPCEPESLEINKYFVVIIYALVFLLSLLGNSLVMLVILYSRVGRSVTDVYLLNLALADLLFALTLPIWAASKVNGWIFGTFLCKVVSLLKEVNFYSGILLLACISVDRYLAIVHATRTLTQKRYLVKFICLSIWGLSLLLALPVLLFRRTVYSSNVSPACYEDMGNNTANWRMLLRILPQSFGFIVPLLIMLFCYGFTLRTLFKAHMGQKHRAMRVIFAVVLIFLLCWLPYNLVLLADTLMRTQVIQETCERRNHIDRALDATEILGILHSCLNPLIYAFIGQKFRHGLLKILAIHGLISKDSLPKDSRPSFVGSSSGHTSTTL
Protocol: CXCR internalization assays. […] Internalization was calculated relative to surface expression of buffer-treated cells (100% control) and isotype control staining (0% control): geometric MFI[experimental]−MFI[0% control]/MFI[100% control]−MFI[0% control]×100.

CCR5 = molecular target: T2, CCR5 (Homo sapiens, UniProt P51681); test: CCR5 internalization in L1.2 CCR5 transfectants; type: cell-based; settings: data not shown
T2 construct: host or cells: L1.2 (mouse pre-B lymphoma) cells

primary human monocytes [4] = test: Arrest of primary monocytes on MIF-pretreated human aortic endothelial cells under flow; type: cell-based; settings: aortic endothelial cells pretreated with recombinant MIF for 2 h
Protocol: Adhesion assays. Arrest of calcein-AM (Molecular Probes)-labeled monocytes, T cells and L1.2 transfectants was quantified in parallel-wall chambers in flow (1.5 dynes/cm^2, 5 min) (Schober, A., et al. (2004) Circulation 109, 380-385; Osterman, G., et al. (2002) Nat. Immunol. 3, 151-158; Weber, C., et al. (1996) J. Cell Biol. 134, 1063-1073).

[5] = system: primary human neutrophils; test: Calcium mobilization in neutrophils (Fluo-4 AM); type: cell-based
Source text: (§2) Calcium mobilization. Neutrophils or L1.2 CXCR2 transfectants were labeled with Fluo-4 AM (Molecular Probes).

CXCR2 [6] = molecular target: T1, CXCR2; test: Calcium mobilization in L1.2 CXCR2 transfectants (Fluo-4 AM); type: cell-based
Source text: as §2

[7] = system: leukocyte adhesion and emigration in postcapillary venules; test: Cremaster microcirculation model, intravital microscopy; type: in vivo, mouse; settings: MIF injected adjacent to the cremaster muscle
Protocol: Cremaster microcirculation model. […] After 4 h, intravital microscopy (Zeiss Axioplan; 20×) was performed in postcapillary venules (Gregory, J. L., et al. (2004) Arthritis Rheum. 50, 3023-3034; Keane, M. P., et al. (2004) J. Immunol. 172, 2853-2860). Adhesion was measured as leukocytes stationary for more than 30 s, emigration as the number of extravascular leukocytes per field.

neutrophil recruitment = test: Model of acute MIF-induced peritonitis; type: in vivo, mouse; settings: after 4 h, mice with wild-type bone marrow
Protocol: Model of acute peritonitis. […] After 4 h, peritoneal Iavage was performed and Gr-1^+CD115^−F4/80^− neutrophils were quantified by flow cytometry using the relevant conjugated antibodies.

T2 sequence (P51681 whole entry): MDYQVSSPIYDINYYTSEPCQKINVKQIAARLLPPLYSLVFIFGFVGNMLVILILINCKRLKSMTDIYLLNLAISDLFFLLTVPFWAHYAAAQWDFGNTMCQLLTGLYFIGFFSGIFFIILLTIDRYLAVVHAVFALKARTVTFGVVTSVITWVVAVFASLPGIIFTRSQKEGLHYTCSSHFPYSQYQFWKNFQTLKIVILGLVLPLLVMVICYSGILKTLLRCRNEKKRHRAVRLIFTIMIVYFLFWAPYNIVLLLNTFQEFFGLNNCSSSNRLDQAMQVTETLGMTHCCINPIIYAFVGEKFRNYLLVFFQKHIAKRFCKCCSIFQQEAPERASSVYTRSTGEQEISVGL
CXCR4, sequence (P61073 whole entry): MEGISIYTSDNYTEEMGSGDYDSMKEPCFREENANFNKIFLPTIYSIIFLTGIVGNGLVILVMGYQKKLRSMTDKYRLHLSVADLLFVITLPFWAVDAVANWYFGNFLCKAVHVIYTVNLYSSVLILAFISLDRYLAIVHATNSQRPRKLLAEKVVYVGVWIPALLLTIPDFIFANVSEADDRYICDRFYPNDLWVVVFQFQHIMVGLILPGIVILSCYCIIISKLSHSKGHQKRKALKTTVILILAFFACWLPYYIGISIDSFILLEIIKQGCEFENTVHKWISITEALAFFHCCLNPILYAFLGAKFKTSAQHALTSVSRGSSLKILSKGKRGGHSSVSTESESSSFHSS

**Q.** For `c1ccc(CNCc2ccc(CN3CCCNCCNCCCNCC3)cc2)nc1` [AMD3465], which “specific binding of fluorescein-MIF to CXCR4-bearing Jurkat cells” value (CXCR4) is on record?
**A.** inhibited

B1: MIF: Recombinant macrophage migration inhibitory factor, expressed and purified as described (Bernhagen 1993) (protein)
chain: PMFIVNTNVPRASVPDGFLSELTQQLAQATGKPPQYIAVHVVPDQLMAFGGSSEPCALCSLHSIGKIGGAQNRSYSKLLCGLLAERLRISPDRVYINYYDMNAANVGWNNSTFA
**Q.** For B1, which “MIF concentration that induced optimal chemotaxis” value (primary human monocytes [1]) is on record?
**A.** 2 to 4 nM

**Q.** And the “optimum of bell-shaped dose-response curve of induced monocyte migration” value (primary human monocytes [1]; MIF in lower chamber, primary human PBMC-derived monocytes)?
**A.** 25 to 50 ng/mL

**Q.** And the T-cell transmigration [2]?
**A.** dose-dependently induced transmigration

**Q.** And the “CXCR2 internalization (surface CXCR2 by FACS)” value (CXCR2 [3])?
**A.** induced CXCR2 internalization

**Q.** What about the CCR5 internalization (CCR5) of the same molecule?
**A.** unable to induce CCR5 internalization

**Q.** And the “arrest of primary human monocytes under flow conditions” value (primary human monocytes [4])?
**A.** substantially increased the arrest

**Q.** And the calcium influx [5]?
**A.** induced calcium influx

**Q.** What about the calcium influx (CXCR2 [6]) of the same molecule?
**A.** dose-dependently induced calcium influx

**Q.** What about the “leukocyte adhesion and emigration in postcapillary venules” value [7] of the same molecule?
**A.** marked increase

**Q.** And the “neutrophil recruitment after intraperitoneal injection” value (neutrophil recruitment)?
**A.** elicited neutrophil recruitment
